According to patent publication US20070172423A1, “Composition and method for modulating vasculogenesis for angiogenesis” (priority 1998, published 2007):

Test system: infarcted heart area
Assay: Revascularization following heart infarction (LAD ligation), Examples 16-17
Assay type: in vivo, mice
Description: Chronic myocardial ischemia was replicated by ligation of the left anterior descending (LAD) coronary artery using anesthetized 10 week old normal C57B16 mice. For PDGF-C treatment mice, 10 μg of recombinant human PDGF-CC core domain protein produced in baculovirus infected insect cells were administered after heart infarction using a subcutaneous osmotic minipump for seven days (ALZET™osmotic pump, DURECT Corporation, Cupertino, Calif.). Seven days after LAD ligation, infarcted hearts were fixed and collected. The PDGF-CC core domain protein (SEQ ID NO: 40) corresponds to corresponds to residues 230-345 of full-length PDGF-C protein i.e. amino acids 230-345 of SEQ ID NO:3. The hearts were sectioned longitudinally into 6 μm sections. Hematoxylin-eosine and immunohistochemical stainings were performed using thrombomodulin as a marker for endothelial cells. Smooth muscle alpha-actin was used as a marker for vascular smooth muscle cells. Infarcted areas and vessel densities were calculated using a Quantinet Q600 image analysis system (Leica, Brussels, Belgium). Data were statistically analyzed using the Student T test.
The same experiment as discussed in Example 16 was repeated using 30 μg recombinant PDGF-C per mouse.

[1] = 10 μg by osmotic minipump for seven days
[2] = 10 μg by osmotic minipump for seven days, average ±SD

B1: PDGF-CC: recombinant human PDGF-CC core domain homodimer, residues 230-345 of full-length PDGF-C (SEQ ID NO:40), produced in baculovirus infected insect cells (protein)
chain: GRKSRVVDLNLLTEEVRLYSCTPRNFSVSIREELKRTDTIFWPGCLLVKRCGGNCACCLHNCNECQCVPSKVTKKYHEVLQLRPKTGVRGLHKSLTDVALEHHEECDCVCRGSTGG
modifications: homodimer; PDGF-C core domain
- large vessel (>30 μm) density relative to normal (untreated) mice [1]: 114%
- medium vessel (10-30 μm) density relative to normal (untreated) mice [1]: 111%
- small vessel (<10 μm) density relative to normal (untreated) mice [1]: 159.4%
- large vessel (>30 μm) density [2]: 8.3±3.2 large vessels/mm^2
- medium vessel (10-30 μm) density [2]: 14.5±3.7 medium vessels/mm^2
- small vessel (<10 μm) density [2]: 33.2±12.5 small vessels/mm^2
- total vessel density (10 μg by osmotic minipump for seven days, average ±SD, n=6): 56±16.6 total vessels/mm^2
- total vessel density relative to normal (untreated) mice (10 μg by osmotic minipump for seven days, infarcted area): about 136%
- SMA positive large vessel density relative to normal (untreated) mice (30 μg per mouse over 7 days): 114%
- SMA positive medium vessel density relative to normal (untreated) mice (30 μg per mouse over 7 days): 142%
- SMA positive small vessel density relative to normal (untreated) mice (30 μg per mouse over 7 days): 145%
- thrombomodulin positive large vessel density relative to normal (untreated) mice (30 μg per mouse over 7 days): 167%
- thrombomodulin positive medium vessel density relative to normal (untreated) mice (30 μg per mouse over 7 days): 153%
- thrombomodulin positive small vessel density relative to normal (untreated) mice (30 μg per mouse over 7 days): 147%
- total SMA positive vessel density relative to normal (untreated) mice (30 μg per mouse over 7 days): 141%
- total thrombomodulin positive vessel density relative to normal (untreated) mice (30 μg per mouse over 7 days): 151%
